Assay results published in US20220298235A1 (AKESO BIOPHARMA, published 2022).
Residue numbers refer to the chain shown, from its start.

T1: human IL-23 (IL-23-His-Biotin) (human, UniProt Q9NPF7 20-189; P29460 23-328, biotin label, site not stated)
T1 construct: Akesobio lot 20161209; His-tagged and biotinylated
T1 sequence (looked up) 1: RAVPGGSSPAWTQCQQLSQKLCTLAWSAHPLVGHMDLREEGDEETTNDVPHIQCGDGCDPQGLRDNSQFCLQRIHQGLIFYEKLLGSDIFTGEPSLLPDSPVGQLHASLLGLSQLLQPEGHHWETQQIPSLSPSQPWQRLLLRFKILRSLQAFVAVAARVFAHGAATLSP
T1 sequence (looked up) 2: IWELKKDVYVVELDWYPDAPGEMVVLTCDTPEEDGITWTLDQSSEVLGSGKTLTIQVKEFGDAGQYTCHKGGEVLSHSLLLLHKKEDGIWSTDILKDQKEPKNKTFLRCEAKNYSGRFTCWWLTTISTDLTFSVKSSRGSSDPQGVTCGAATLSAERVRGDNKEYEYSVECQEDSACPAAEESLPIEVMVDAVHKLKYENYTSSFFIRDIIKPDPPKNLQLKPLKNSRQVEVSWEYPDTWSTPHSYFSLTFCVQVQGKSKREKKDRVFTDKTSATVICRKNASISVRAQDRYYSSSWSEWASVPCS

T2: human p40-His (human, UniProt P29460 23-328)
T2 construct: Made by Akeso Biopharma; construct limits and tag not described; also called human IL-12/IL-23 p40 protein domain; human IL-12/IL-23 p40; not shown: His tag
T2 sequence (looked up): T1 sequence (looked up) 2

T3: Human IL12 (His Tag) (human, UniProt P29459 23-219; P29460 23-328)
T3 construct: Bought His-tagged heterodimer
T3 sequence (looked up) 1: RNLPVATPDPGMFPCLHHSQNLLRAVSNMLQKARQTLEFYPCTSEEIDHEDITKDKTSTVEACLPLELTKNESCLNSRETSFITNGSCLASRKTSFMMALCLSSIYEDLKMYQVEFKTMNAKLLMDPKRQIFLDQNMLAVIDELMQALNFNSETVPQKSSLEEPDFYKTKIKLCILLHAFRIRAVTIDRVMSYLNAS
T3 sequence (looked up) 2: T1 sequence (looked up) 2

B1: H5L10 (antibody, human IgG1, kappa, V domains shown)
VH: EVQLVQSGAEVKKPGESLKISCQSSGYSFTTYWIGWVRQMPGQGLEWIGIMSPVDSDIRYNPMFRGQVTMSVDKSSSTAYLQWSSLKASDTAMYYCARRRPGQGYFDFWGQGTMVTVSS
VL: EIVLTQSPATLSASPGERATISCRASQSVGSWLAWYQQKPGQAPRSLIYAASNLQSGIPARFSGSGSGTDFTLTISSLEPEDFAVYYCQQYNIYPYTFGQGTRLEIKR
notes: human IgG1 / kappa constant regions; also called humanized antibody H5L10
B2: H5L11 (antibody, human IgG1, kappa, V domains shown)
VH: B1 VH
VL: B1 VL with G30S, A50S
notes: human IgG1 / kappa constant regions; also called humanized antibody H5L11
B3: H5L12 (antibody, human IgG1, kappa, V domains shown)
VH: B1 VH
VL: B1 VL with G30S, L54R
notes: human IgG1 / kappa constant regions; also called humanized antibody H5L12
B4: H5L14 (antibody, human IgG1, kappa, V domains shown)
VH: B1 VH
VL: B1 VL with G30S, Y96F
notes: human IgG1 / kappa constant regions; also called humanized antibody H5L14
B5: ustekinumab (antibody, V domains shown)
VH: EVQLVQSGAEVKKPGESLKISCKGSGYSFTTYWLGWVRQMPGKGLDWIGIMSPVDSDIRYSPSFQGQVTMSVDKSITTAYLQWNSLKASDTAMYYCARRRPGQGYFDFWGQGTLVTVSS
VL: DIQMTQSPSSLSASVGDRVTITCRASQGISSWLAWYQQKPEKAPKSLIYAASSLQSGVPSRFSGSGSGTDFTLTISSLQPEDFATYYCQQYNIYPYTFGQGTKLEIK
B6: H5L9 (antibody, human IgG1, kappa, V domains shown)
VH: B1 VH
VL: DIQMTQSPSSLSASVGDRVTITCKASQNVGSWLAWYQQKPGKAPKSLIYSASSRQSGVPSRFSGSGSGTDFTLTISSLQPEDFATYYCQQYDIYPFTFGQGTKLEIKR
notes: human IgG1 (P01857) / kappa (P01834) constant regions; also called humanized antibody H5L9

These binders were tested against T1, human IL-23 (IL-23-His-Biotin) (assay: FACS competition, IL-23-His-Biotin 2 µg/mL on 293T-IL-12Rβ1&IL-23R cells; antibody 30 µg/mL).
Description: (§1) 200 μL of 1% PBSA was added into each sample, and the mixture was centrifuged at 700×g for 5 min to discard the supernatant. According to experiment design, correspondingly diluted antibody (highest final concentration of 30 μg/mL, 3-fold dilution, 8 concentrations in total) and human IL-23 (IL-23-His-Biotin, Akesobio, 20161209) (final concentration of 2 μg/mL) were mixed at a ratio of 1:1, and a blank control was set. The mixture of antibody and human IL23 was incubated on ice for 30 min and then added to the cell precipitate at 100 μL/sample. The resulting mixture was well mixed and incubated on ice for 60 min. 200 μL of 1% PBSA was added, and the mixture was centrifuged at 700×g for 5 min to discard the supernatant, and then washed twice. FITC Steptavidin (Biolegend, Cat. No.: 405202) was diluted at a ratio of 1:500 and added to each tube at 100 μL. The mixture was well mixed and incubated on ice for 40 min in the absence of light. 200 μL of 1% PBSA was added, and the mixture was centrifuged at 700×g for 5 min to discard the supernatant, and then washed twice. 1% PBSA was added at 200 μL/tube, and the cells were resuspended and transferred to a flow cytometry tube for testing.

Binder	MFI [MFI]
B1	11.9
B2	12.9
B3	12.3
B4	14.1
B5	9.64
B6	104

The binders below were run against T1, human IL-23 (IL-23-His-Biotin) (assay: FACS competition, IL-23-His-Biotin 2 µg/mL on 293T-IL-12Rβ1&IL-23R cells; antibody 0.04 µg/mL).
Description: as §1

Binder	MFI [MFI]
B1	230
B2	224
B3	234
B4	216
B5	216
B6	221

What follows are binders tested against T2, human p40-His (assay: indirect ELISA, p40-His coat 0.125 µg/mL).
Description: (§2) A microplate was coated with human p40-His (Akeso Biopharma, Inc.; gene of p40: GeneBank NM002187). After incubation at 4° C. for no less than 12 h, the plate was washed with PBST, patted dry and blocked with a solution of 1% BSA in PBS. After blocking was completed, the plate was washed with PBST and patted dry. The antibody diluted with PBST solution in gradient was added into the wells of the plate, and the antibody dilution gradient is detailed in Table 1. The plate containing the test antibody was incubated at 37° C. for 30 min and then washed with PBST and patted dry. […] TMB (Neogen, 308177) was added for color developing for 5 min in the absence of light, and then stop solution was added to terminate the chromogenic reaction. Then the plate was put into a plate reader immediately, and the OD value of each well in the plate was read at 450 nm. The data were analyzed by SoftMax Pro 6.2.1.
The detection results of the binding of antibodies H5L11, H5L12, H5L14 and Ab123FR1 to the antigen human p40-His are shown in FIG. 3. The binding EC₅₀ of antibody was calculated by curve fitting using antibody concentration as the abscissa and absorbance value as the ordinate, and the results are shown in Table 3 below.

Binder	EC50 [nM]
B2	0.082
B3	0.082
B4	0.107

Biological target: T2, human p40-His
Test: indirect ELISA, p40-His coat 0.125 µg/mL
Remark: another data set of the same source
Description: as §2
The binding EC₅₀ of antibody was calculated by curve fitting using antibody concentration as the abscissa and absorbance value as the ordinate, and the results are shown in Table 2 below.

Binder	EC50 [nM]
B1	0.057

The binders below were run against T3, Human IL12 (His Tag) (assay: FACS competition, IL-12-His 20 nM on 293T-IL-12Rβ1&IL-23R cells).
Description: 200 μL of 1% PBSA was added into each sample, and the mixture was centrifuged at 700×g for 5 min to discard the supernatant. According to experiment design, correspondingly diluted antibody (highest final concentration of 30 μg/mL, 3-fold dilution, 8 concentrations in total) and human IL-12 (Sino Biological, Cat. No.: CT-050-H08H-20) (final concentration of 20 nM) were mixed at a ratio of 1:1, and a blank control was set. The mixture of antibody and human IL12 was incubated on ice for 30 min and then added to the cell precipitate at 100 μL/sample. The resulting mixture was well mixed and incubated on ice for 60 min 200 μL of 1% PBSA was added, and the mixture was centrifuged at 700×g for 5 min to discard the supernatant, and then washed twice. Alexa Fluor® 488 anti-His tag antibody (Biolegend, Cat. No.: 652509) was diluted at a ratio of 1:400 and added to each tube at 100 μL. The mixture was well mixed and incubated on ice for 40 min in the absence of light. 200 μL of 1% PBSA was added, and the mixture was centrifuged at 700×g for 5 min to discard the supernatant, and then washed twice. 1% PBSA was added at 200 μL/tube, and the cells were resuspended and transferred to a flow cytometry tube for testing.

Binder	EC50 [µg/mL]
B1	0.331
B2	0.414
B3	0.317
B4	0.532
B5	0.377

These binders were tested against T1, human IL-23 (IL-23-His-Biotin) (assay: FACS competition, IL-23-His-Biotin 2 µg/mL on 293T-IL-12Rβ1&IL-23R cells; antibody 0.12 µg/mL).
Description: as §1

Binder	MFI [MFI]
B1	221
B2	219
B3	211
B4	203
B5	211
B6	217
